{"source": "patent US20260232732A1", "about": "(FUNDACI INSTITUT DE RECERCA CONTRA LA LEUC MIA JOSEP …, published 2026)", "binders": {"B1": {"name": "CCR9_HUM2 scFv (humanized anti-CCR9 scFv, SEQ ID NO: 17 with C-terminal 6xHis tag) (scFv)", "scFv": "QVQLVQSGAEVKKPGASVKVSCTASGYSFTDYIIYWVKQAHGQSLEWMGYIDPNNYNTRYSQKFQGKVTITVDKSSTSAYMELNSLTSDDTAVYYCARDVYWGQGTTVTVSSGGGGSGGGGSGGGGSGGGGSDVVMTQTPLSLSVTPGQPASISCRSSQSLVHSNGKTYLQWYLQKPGQSPKLLIYKVSNRFSGVPDRFSGSGSGTDFTLKISRVEAEDVGVYFCAQSTHVWTFGGGTKVEIKRAHHHHHH"}, "B2": {"name": "Comparative antibody 1 (Comp-1) scFv, SEQ ID NO: 10 from WO2023/037125 A1, His-tagged (scFv)", "scFv": "QVQLKESGPGLVQPSQTLSLTCTVSGFSVASYDMHWVRLPPGKGLEWMGIIWANGNTHYNSGLKSRLSISRDTSKSQVFLKMNSLQTEDTAIYFCTRGGFAYWGQGTLVTVSSGGGGSGGGGSGGGGSGGGGSDVVMTQTPVSLSVSLGGQVSISCRSSQSLVHNNGNTYLSWYLQKPGQSPQLLIYKVSNRFSGVSDRFSGSGSGTDFTLKISRVEPDDLGVYYCGQGTQYPTFGGGTKLELKHHHHHH"}, "B3": {"name": "anti-CCR9 antibody clone 115 (murine, from hybridoma #115) (antibody, V domains shown)", "VH": "QVQLKQSGPELVKPGTSVRVSCTASGYSFTDYIIYWVKQSHGRSLEWIGYIDPNNYNTRYSQKFKGKATLTVDKSSTSAFMHLNSLTSDDSAVYYCARDVYWGQGTTLTVSS", "VL": "DVVMTQTPLSLTVSLGDQASISCRSSQSLVHSNGKTYLQWYLQKPGQSPKLLIYKVSNRFSGVPDRFSGSGSGTDFTLKISRVEAEDLGVYFCAQSTHVWTFGGGTKLEIKR", "notes": "Mouse IgG1"}}, "key": {"[1]": {"target": "T1, biotin-peptide MEDYVNFNFT (human)", "T1 peptide": "Biotin-MEDYVNFNFT", "test": "ELISA biotin-peptide; scFv 5 ug/mL; repI", "experimental": "(§1) The peptides were synthesized naked or with a N-terminal Biotin modification with a purity of >98%. All four scFvs were verified by ELISA that can be detected with anti-His antibodies. ELISA was performed for scFv-peptide binding validation. Briefly, naked peptides were coated (50 μg/mL) in 0.58M carbonate-bicarbonate buffer pH9.5, 100 μL/well, 4° C. O/N. Then after blocking (3% BSA-PBS, 300 μL/well 37° C. 1.5 h) and washing (PBS+Tween-20 0.05% v/v (0.05% PBST), wells were incubated with each purified scFv antibody at concentration of 1 μg/mL in PBS at 37° C. 1 h. After washing (0.05% PBST), wells were incubated with secondary antibodies (goat anti-His IgG-HRP) in PBS, 37° C., 30 min. After washing, and incubation with TMB substrate, reactions were stopped with 2M HCl and reading was quantified at OD450.\n(§2) ELISA with biotin-conjugated peptides (5 μg/mL) was performed very similar to described above with minor modifications.\n(§3) A full curve ELISA was performed for each positive scFv/biotin-peptide pair in order to confirm previous results. Tables 15-17 show ELISA results of the dose-dependent full curve for each positive peptide with scFv “CCR9_HUM”, “Comp-2” and “Comp-3”, respectively."}, "[2]": {"target": "T2, biotin-peptide SMEDYVNFNF (human)", "T2 peptide": "Biotin-SMEDYVNFNF", "test": "ELISA biotin-peptide; scFv 5 ug/mL; repI", "experimental": "as §1, §2, §3"}, "[3]": {"target": "T1, biotin-peptide MEDYVNFNFT", "test": "ELISA biotin-peptide; scFv 0.3125 ug/mL; repII", "experimental": "as §1, §2, §3"}, "[4]": {"target": "T3, biotin-peptide TSSMEDYVNF (human)", "T3 peptide": "Biotin-TSSMEDYVNF", "test": "ELISA biotin-peptide; scFv 0.3125 ug/mL; repII", "experimental": "as §1, §2, §3"}, "[5]": {"target": "T4, biotin-peptide SSMEDYVNFN (human)", "T4 peptide": "Biotin-SSMEDYVNFN", "test": "ELISA biotin-peptide; scFv 0.3125 ug/mL; repII", "experimental": "as §1, §2, §3"}, "[6]": {"target": "T2, biotin-peptide SMEDYVNFNF", "test": "ELISA biotin-peptide; scFv 0.3125 ug/mL; repII", "experimental": "as §1, §2, §3"}, "[7]": {"target": "T1, biotin-peptide MEDYVNFNFT", "test": "ELISA biotin-peptide; scFv 10 ug/mL; repI", "experimental": "as §1, §2, §3"}, "[8]": {"target": "T3, biotin-peptide TSSMEDYVNF", "test": "ELISA biotin-peptide; scFv 10 ug/mL; repI", "experimental": "as §1, §2, §3"}, "[9]": {"target": "T4, biotin-peptide SSMEDYVNFN", "test": "ELISA biotin-peptide; scFv 10 ug/mL; repI", "experimental": "as §1, §2, §3"}, "[10]": {"target": "T2, biotin-peptide SMEDYVNFNF", "test": "ELISA biotin-peptide; scFv 10 ug/mL; repI", "experimental": "as §1, §2, §3"}, "[11]": {"target": "T5, Pep1-48, N-terminal domain 1 of CCR9, amino acids 1 to 48 (human)", "T5 construct": "Chemically synthesized (Genscript), purity >75%; also called CCR9 N-terminal 1-48 peptide", "T5 peptide": "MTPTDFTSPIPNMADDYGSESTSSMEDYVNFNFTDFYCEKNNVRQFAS", "test": "BLI, His-tagged scFv on NTA biosensor, Pep1-48 as analyte, 1:1 global fit; paragraph 309 says that Comp-1 does not bind, in agreement with the BLI results of Table 11", "experimental": "The affinity between the CCR9-N-terminal domain 1 of CCR9 and the different scFvs was determined by Bio-Layer Interferometry (BLI), a technique that allows quantitative and qualitative measurement of biomolecular interactions in real-time. Briefly, scFv were immobilized onto NTA Biosensor (Sartorius) and quantification was performed in an Octet RED384 (Sartorius). scFv were dissolved in PBS (150 mM NaCl, 38 mM Na2HPO4, 12 mM NaH2PO4, pH 7.2) and a buffer containing 0.03% Tween-20 in PBS, pH 7.2 was used for baseline steps."}, "[12]": {"target": "T6, Peptide 2, non-conjugated (GSESTSSMED-C) (human)", "T6 construct": "With the extra C-terminal Cys", "T6 peptide": "GSESTSSMEDC", "test": "ELISA; Ab 0.01563 ug/mL; repII", "experimental": "(§4) In brief, plates with each non-conjugated peptide (50 μg/mL) or BSA-conjugated peptide (5 μg/mL) were coated in 0.58M carbonate-bicarbonate buffer pH9.5, 100 μL/well, at 4° C. […] After washing, wells were incubated with the 3, 3′,5,5′-Tetramethylbenzidine (TMB) HRP substrate and reactions were stopped with 2M HCl and OD450 was recorded."}, "[13]": {"target": "T7, BSA (negative control coating) (bovine, UniProt P02769 25-607)", "T7 construct": "also called Negative control BSA", "T7 sequence (P02769 25-607 limits assumed)": "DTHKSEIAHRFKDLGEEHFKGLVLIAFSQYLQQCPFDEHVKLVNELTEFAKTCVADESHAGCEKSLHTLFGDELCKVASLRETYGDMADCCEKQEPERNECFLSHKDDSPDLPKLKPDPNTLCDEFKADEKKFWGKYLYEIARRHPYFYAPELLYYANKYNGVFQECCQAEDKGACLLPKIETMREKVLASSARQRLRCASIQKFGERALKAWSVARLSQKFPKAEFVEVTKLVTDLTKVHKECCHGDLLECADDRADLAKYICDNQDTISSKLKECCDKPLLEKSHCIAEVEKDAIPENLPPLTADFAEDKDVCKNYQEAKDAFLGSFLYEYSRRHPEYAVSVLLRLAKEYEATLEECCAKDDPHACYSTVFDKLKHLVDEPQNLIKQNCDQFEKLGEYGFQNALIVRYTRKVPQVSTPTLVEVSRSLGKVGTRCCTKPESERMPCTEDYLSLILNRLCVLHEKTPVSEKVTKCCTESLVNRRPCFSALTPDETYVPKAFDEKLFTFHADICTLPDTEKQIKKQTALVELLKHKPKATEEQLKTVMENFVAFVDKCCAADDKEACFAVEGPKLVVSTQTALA", "test": "ELISA; Ab 0.01563 ug/mL; repII", "experimental": "as §4"}, "[14]": {"target": "T8, Peptide 1-BSA (MADDYGSEST-C conjugated to BSA) (human)", "T8 peptide": "MADDYGSESTC(BSA)", "test": "ELISA; Ab 0.01563 ug/mL; repII", "experimental": "as §4"}, "[15]": {"target": "T9, Peptide 2-BSA (GSESTSSMED-C conjugated to BSA) (human)", "T9 peptide": "GSESTSSMEDC(BSA)", "test": "ELISA; Ab 0.01563 ug/mL; repII", "experimental": "as §4"}, "[16]": {"target": "T10, Peptide 3, non-conjugated (SSMEDYVNFN-C) (human)", "T10 construct": "With the extra C-terminal Cys", "T10 peptide": "SSMEDYVNFNC", "test": "ELISA; Ab 0.01563 ug/mL; repII", "experimental": "as §4"}, "[17]": {"target": "T11, Peptide 4-BSA (SMEDYVNFNF-C conjugated to BSA) (human)", "T11 peptide": "SMEDYVNFNFC(BSA)", "test": "ELISA; Ab 0.01563 ug/mL; repII", "experimental": "as §4"}, "[18]": {"target": "T12, Peptide 3-BSA (SSMEDYVNFN-C conjugated to BSA) (human)", "T12 peptide": "SSMEDYVNFNC(BSA)", "test": "ELISA; Ab 0.01563 ug/mL; repII", "experimental": "as §4"}, "[19]": {"target": "T13, antigen peptide-BSA (immunisation peptide #1 MADDYGSESTSSMEDYVNFNF-C conjugated to BSA) (human, extra C-terminal Cys conjugated to BSA)", "T13 construct": "also called Positive control antigen peptide-BSA; MADDY peptide", "T13 peptide": "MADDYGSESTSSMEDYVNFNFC", "test": "ELISA; Ab 0.01563 ug/mL; repII", "experimental": "as §4"}, "[20]": {"target": "T14, Peptide 1, non-conjugated (MADDYGSEST-C) (human)", "T14 construct": "With the extra C-terminal Cys", "T14 peptide": "MADDYGSESTC", "test": "ELISA; Ab 0.01563 ug/mL; repII", "experimental": "as §4"}, "[21]": {"target": "T15, Peptide 4, non-conjugated (SMEDYVNFNF-C) (human)", "T15 construct": "With the extra C-terminal Cys", "T15 peptide": "SMEDYVNFNFC", "test": "ELISA; Ab 0.01563 ug/mL; repII", "experimental": "as §4"}}, "note": "Where no end group is shown, it is not given here. The star is where a group is joined. Biotin = O=C1N[C@H]2[C@H](CS[C@H]2CCCCC(=O)*)N1"}
{"binder": "B1", "values": [{"measurement": "OD450", "setting": "[1]", "result": 1.71, "unit": "OD"}, {"measurement": "OD450", "setting": "[2]", "result": 1.78, "unit": "OD"}, {"measurement": "OD450", "setting": "[3]", "result": 1.35, "unit": "OD"}, {"measurement": "OD450", "setting": "[4]", "result": 0.45, "unit": "OD"}, {"measurement": "OD450", "setting": "[5]", "result": 1.73, "unit": "OD"}, {"measurement": "OD450", "setting": "[6]", "result": 1.65, "unit": "OD"}, {"measurement": "OD450", "setting": "[7]", "result": 1.72, "unit": "OD"}, {"measurement": "OD450", "setting": "[8]", "result": 1.46, "unit": "OD"}, {"measurement": "OD450", "setting": "[9]", "result": 1.9, "unit": "OD"}, {"measurement": "OD450", "setting": "[10]", "result": 1.79, "unit": "OD"}]}
{"binder": "B2", "values": [{"measurement": "binding result", "setting": "[11]", "result": "no binding"}]}
{"binder": "B3", "values": [{"measurement": "OD450", "setting": "[12]", "result": 0.01, "unit": "OD"}, {"measurement": "OD450", "setting": "[13]", "result": 0.01, "unit": "OD"}, {"measurement": "OD450", "setting": "[14]", "result": 0.01, "unit": "OD"}, {"measurement": "OD450", "setting": "[15]", "result": 0.01, "unit": "OD"}, {"measurement": "OD450", "setting": "[16]", "result": 1.4, "unit": "OD"}, {"measurement": "OD450", "setting": "[17]", "result": 1.03, "unit": "OD"}, {"measurement": "OD450", "setting": "[18]", "result": 1.34, "unit": "OD"}, {"measurement": "OD450", "setting": "[19]", "result": 1.21, "unit": "OD"}, {"measurement": "OD450", "setting": "[20]", "result": 0.01, "unit": "OD"}, {"measurement": "OD450", "setting": "[21]", "result": 0.46, "unit": "OD"}]}
